The source of these data is the supplement of paper PMC5998384.

Series [1] has as its system HeLa Kyoto. The series is described as follows: solubility change mitosis vs G1/S (difference of NP-40 vs SDS log2 ratios) (log2 ratio difference); higher = more soluble in mitosis.
In series [2] the test system is HeLa Kyoto. The series is described as follows: solubility in G1/S (NP-40 vs SDS abundance) (log2 ratio); higher = more soluble. Conditions: cell cycle stage: G1/S.
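For solubility change mitosis vs G1/S (difference of NP-40 vs SDS log2 ratios) in this document: synchronized HeLa Kyoto cells (double thymidine block for G1/S, nocodazole release for mitosis), protein amounts in NP-40 versus SDS lysates quantified by mass spectrometry, three biological replicates.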
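For solubility in G1/S (NP-40 vs SDS abundance) in this document: HeLa Kyoto cells arrested at G1/S by double thymidine block, proteins quantified by TMT10plex mass spectrometry in mild NP-40 versus SDS extracts, three biological replicates.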

Sequence of ATRN (chain, as listed by the source): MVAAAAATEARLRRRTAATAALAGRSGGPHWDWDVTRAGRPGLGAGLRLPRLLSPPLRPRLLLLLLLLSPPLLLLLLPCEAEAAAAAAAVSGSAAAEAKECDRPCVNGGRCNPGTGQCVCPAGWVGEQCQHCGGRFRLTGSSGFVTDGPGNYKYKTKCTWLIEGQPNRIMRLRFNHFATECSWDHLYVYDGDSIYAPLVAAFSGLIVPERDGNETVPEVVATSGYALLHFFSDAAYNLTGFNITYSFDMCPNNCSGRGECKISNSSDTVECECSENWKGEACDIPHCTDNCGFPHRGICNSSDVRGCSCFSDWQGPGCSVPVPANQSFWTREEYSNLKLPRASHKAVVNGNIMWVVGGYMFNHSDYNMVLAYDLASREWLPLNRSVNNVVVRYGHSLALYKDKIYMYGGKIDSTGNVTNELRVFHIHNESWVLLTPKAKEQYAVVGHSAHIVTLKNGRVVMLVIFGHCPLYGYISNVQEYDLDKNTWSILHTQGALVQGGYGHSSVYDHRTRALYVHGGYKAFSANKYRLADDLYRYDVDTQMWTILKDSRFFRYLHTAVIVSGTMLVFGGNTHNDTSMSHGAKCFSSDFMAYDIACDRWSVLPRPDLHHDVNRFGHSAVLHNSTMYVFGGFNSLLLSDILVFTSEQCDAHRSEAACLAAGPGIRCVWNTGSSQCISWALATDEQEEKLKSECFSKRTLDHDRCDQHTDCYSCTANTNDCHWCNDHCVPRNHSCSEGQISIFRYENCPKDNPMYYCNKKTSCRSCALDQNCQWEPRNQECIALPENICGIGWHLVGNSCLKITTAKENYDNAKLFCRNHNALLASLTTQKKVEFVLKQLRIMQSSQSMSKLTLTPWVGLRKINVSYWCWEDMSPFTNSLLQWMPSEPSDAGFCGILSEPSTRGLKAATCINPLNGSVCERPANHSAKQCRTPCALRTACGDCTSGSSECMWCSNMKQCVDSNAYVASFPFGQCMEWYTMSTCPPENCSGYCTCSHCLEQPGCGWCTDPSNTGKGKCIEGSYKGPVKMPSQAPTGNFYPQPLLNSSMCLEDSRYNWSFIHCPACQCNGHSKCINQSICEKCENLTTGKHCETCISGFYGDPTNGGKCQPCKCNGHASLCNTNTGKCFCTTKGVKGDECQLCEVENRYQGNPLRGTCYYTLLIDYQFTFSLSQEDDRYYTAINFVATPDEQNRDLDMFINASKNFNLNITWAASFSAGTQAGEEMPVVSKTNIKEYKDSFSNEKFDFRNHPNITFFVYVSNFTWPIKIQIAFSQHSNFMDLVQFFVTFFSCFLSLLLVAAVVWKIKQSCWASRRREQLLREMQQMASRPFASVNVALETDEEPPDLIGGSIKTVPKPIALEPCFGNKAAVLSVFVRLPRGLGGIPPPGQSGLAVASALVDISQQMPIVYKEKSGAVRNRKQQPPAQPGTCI

With “MFSALKKLVGSDQAPGRDKNIPAGLQSMNQALQRRFAKGVQYNMKIVIRGDRNTGKTALWHRLQGRPFVEEYIPTQEIQVTSIHWSYKTTDDIVKVEVWDVVDKGKCKKRGDGLKMENDPQEAESEMALDAEFLDVYKNCNGVVMMFDITKQWTFNYILRELPKVPTHVPVCVLGNYRDMGEHRVILPDDVRDFIDNLDRPPGSSYFRYAESSMKNSFGLKYLHKFFNIPFLQLQRETLLRQLETNQLDMDATLEELSVQQETEDQNYGIFLEMMEARSRGHASPLAANGQSPSPGSQSPVVPAGAVSTGSSSPGTPQPAPQLPLNAAPPSSVPPVPPSEALPPPACPSAPAPRRSIISRLFGTSPATEAAPPPPEPVPAAEGPATVQSVEDFVPDDRLDRSFLEDTTPARDEKKVGAKAAQQDSDSDGEALGGNPMVAGFQDDVDLEDQPRGSPPLPAGPVPSQDITLSSEEEAEVAAPTKGPAPAPQQCSEPETKWSSIPASKPRRGTAPTRTAAPPWPGGVSVRTGPEKRSSTRPPAEMEPGKGEQASSSESDPEGPIAAQMLSFVMDDPDFESEGSDTQRRADDFPVRDDPSDVTDEDEGPAEPPPPPKLPLPAFRLKNDSDLFGLGLEEAGPKESSEEGKEGKTPSKEKKKKKKKGKEEEEKAAKKKSKHKKSKDKEEGKEERRRRQQRPPRSRERTAADELEAFLGGGAPGGRHPGGGDYEEL [RABL6]”, in the series with HeLa Kyoto [1], the “solubility change mitosis (log2)” value is -0.0863. The “solubility in G1/S (log2)” value with HeLa Kyoto [2] is 0.183.
“MPLPEPSEQEGESVKAGQEPSPKPGTDVIPAAPRKPREFSKLVLLTASDQDEDGVGSKPQEVHCVLSLEMAGPATLASTLQILPVEEQGGVVQPALEMPEQKCSKLDAAAPQSLEFLRTPFGGRLLVLESFLYKQEKAVGDKVYWKCRQHAELGCRGRAITRGLRATVMRGHCHAPDEQGLEARRQREKLPSLALPEGLGEPQGPEGPGGRVEEPLEGVGPWQCPEEPEPTPGLVLSKPALEEEEAPRALSLLSLPPKKRSILGLGQARPLEFLRTCYGGSFLVHESFLYKREKAVGDKVYWTCRDHALHGCRSRAITQGQRVTVMRGHCHQPDMEGLEARRQQEKAVETLQAGQDGPGSQVDTLLRGVDSLLYRRGPGPLTLTRPRPRKRAKVEDQELPTQPEAPDEHQDMDADPGGPEFLKTPLGGSFLVYESFLYRREKAAGEKVYWTCRDQARMGCRSRAITQGRRVTVMRGHCHPPDLGGLEALRQREKRPNTAQRGSPGGPEFLKTPLGGSFLVYESFLYRREKAAGEKVYWTCRDQARMGCRSRAITQGRRVMVMRRHCHPPDLGGLEALRQREHFPNLAQWDSPDPLRPLEFLRTSLGGRFLVHESFLYRKEKAAGEKVYWMCRDQARLGCRSRAITQGHRIMVMRSHCHQPDLAGLEALRQRERLPTTAQQEDPEKIQVQLCFKTCSPESQQIYGDIKDVRLDGESQ [FLYWCH1]”: the “solubility change mitosis (log2)” value with HeLa Kyoto [1] is 0.409. In the series with HeLa Kyoto [2], the “solubility in G1/S (log2)” value was -0.557.
In the case of “MGPGGPLLSPSRGFLLCKTGWHSNRLLGDCGPHTPVSTALSFIAVGMAAPSMKERQVCWGARDEYWKCLDENLEDASQCKKLRSSFESSCPQQWIKYFDKRRDYLKFKEKFEAGQFEPSETTAKS [COA6]”, the “solubility change mitosis (log2)” value with HeLa Kyoto [1] was 0.327. Moreover, the “solubility in G1/S (log2)” value in the series with HeLa Kyoto [2] was -0.656.
For the substance ZNF106, the “solubility change mitosis (log2)” value in the series with HeLa Kyoto [1] was 0.915. Moreover, the “solubility in G1/S (log2)” value in the series with HeLa Kyoto [2] was -1.19.
Consider “MSGSCAAPGPGSGSSPAACRFAHYFVLCGIDADSGLEPDELAGENFDQSPLRRTFKSKVLAHYPQNIEWNPFDQDAVNMLCMPKGLSFRTQTDNKDPQFHSFIITREDGSRTYGFVLTFYEEVTSKQICTAMQTLYQMHNAEHYSSVYASSSCSMDSLASSLDEGDTTSLLKLQRYNSYDISRDTLYVSKSICLITPLPFMQACKKFLIQLYKAVTSQQPPPLPLESYIHNILYEVPLPPPGRSLKFYGVYEPVICQRPGPSELPLSDYPLREAFELLGLENLVQVFTCVLLEMQILLYSQDYQRLMTVAEGITTLLFPFQWQHVYVPILPASLLHFLDAPVPYLMGLQSKEGTDRSKLELPQEANLCFVDIDNHFIELPEEFPQFPNKVDFIQELSEVLVQFGIPPEGSLHCSESTSKLKNMVLKDLVNDKKNGNVCTNNISMYELLKGNETIARLQALAKRTGVAVEKMDLSASLGEKDKDLKLHCEEAELRDYQLNVQLREVFANRFTQMFADYEAFVIQTAQDMESWLTNREQMQNFDKASFLSDQPEPYLPFLSRFIETQMFATFIDNKIMSQWEEKDPLLRVFDTRIDKIRLYNVRAPTLRTSIYQKCSTLKEAAQSIEQRLMKMDHTAIHPHLLDMKIGQGKYEQGFFPKLQSDVLATGPTSNNRWVSRSATAQRRKERLRQHSEHVGLDNDLREKYMQEARSLGKNLRQPKLSDLSPAVIAQTNCKFVEGLLKECRMKTKRMLVEKMGHEAVELGHGEANITGLEENTLIASLCDLLERIWSHGLQVKQGKSALWSHLIQFQDREEKQEHLAESPVALGPERRKSDSGVMLPTLRVSLIQDMRHIQNMSEIKTDVGRARAWIRLSLEKKLLSQHLKQLLSNQPLTKKLYKRYAFLRCEEEREQFLYHLLSLNAVDYFCFTSVFTTIMIPYRSVIIPIKKLSNAIITSNPWICVSGELGDTGVMQIPKNLLEMTFECQNLGKLTTVQIGHDNSGLLAKWLVDCVMVRNEITGHTYRFPCGRWLGKGIDDGSLERILIGELMTSASDEDLVKQCRTPPQQKSPTTARRLSITSLTGKNNKPNAGQIQEGIGEAVNNIVKHFHKPEKERGSLTVLLCGENGLVAALEQVFHHGFKSARIFHKNVFIWDFIEKVVAYFETTDQILDNEDDVLIQKSSCKTFCHYVNAINTAPRNIGKDGKFQILVCLGTRDRLLPQWIPLLAECPAITRMYEESALLRDRMTVNSLIRILQTIQDFTIVLEGSLIKGVDV [DENND5B]”, for which the “solubility change mitosis (log2)” value with HeLa Kyoto [1] is -0.179. Besides, the “solubility in G1/S (log2)” value with HeLa Kyoto [2] was -0.149.
Take SZT2: the “solubility change mitosis (log2)” value with HeLa Kyoto [1] was found to be 0.317. Further, in the series with HeLa Kyoto [2], the “solubility in G1/S (log2)” value is -0.476.
The corresponding values for ATRN are -0.041 and 0.238.
In the case of “MTEESEETVLYIEHRYVCSECNQLYGSLEEVLMHQNSHVPQQHFELVGVADPGVTVATDTASGTGLYQTLVQESQYQCLECGQLLMSPSQLLEHQELHLKMMAPQEAVPAEPSPKAPPLSSSTIHYECVDCKALFASQELWLNHRQTHLRATPTKAPAPVVLGSPVVLGPPVGQARVAVEHSYRKAEEGGEGATVPSAAATTTEVVTEVELLLYKCSECSQLFQLPADFLEHQATHFPAPVPESQEPALQQEVQASSPAEVPVSQPDPLPASDHSYELRNGEAIGRDRRGRRARRNNSGEAGGAATQELFCSACDQLFLSPHQLQQHLRSHREGVFKCPLCSRVFPSPSSLDQHLGDHSSESHFLCVDCGLAFGTEALLLAHRRAHTPNPLHSCPCGKTFVNLTKFLYHRRTHGVGGVPLPTTPVPPEEPVIGFPEPAPAETGEPEAPEPPVSEETSAGPAAPGTYRCLLCSREFGKALQLTRHQRFVHRLERRHKCSICGKMFKKKSHVRNHLRTHTGERPFPCPDCSKPFNSPANLARHRLTHTGERPYRCGDCGKAFTQSSTLRQHRLVHAQHFPYRCQECGVRFHRPYRLLMHRYHHTGEYPYKCRECPRSFLLRRLLEVHQLVVHAGRQPHRCPSCGAAFPSSLRLREHRCAAAAAQAPRRFECGTCGKKVGSAARLQAHEAAHAAAGPGEVLAKEPPAPRAPRATRAPVASPAALGSTATASPAAPARRRGLECSECKKLFSTETSLQVHRRIHTGERPYPCPDCGKAFRQSTHLKDHRRLHTGERPFACEVCGKAFAISMRLAEHRRIHTGERPYSCPDCGKSYRSFSNLWKHRKTHQQQHQAAVRQQLAEAEAAVGLAVMETAVEALPLVEAIEIYPLAEAEGVQISG [ZNF574]”, in the series with HeLa Kyoto [1], the “solubility change mitosis (log2)” value turned out to be 0.212. Further, the “solubility in G1/S (log2)” value in the series with HeLa Kyoto [2] is -0.386.
Turning to “MEDSQDLNEQSVKKTCTESDVSQSQNSRSMEMQDLASPHTLVGGGDTPGSSKLEKSNLSSTSVTTNGTGGENMTVLNTADWLLSCNTPSSATMSLLAVKTEPLNSSETTATTGDGALDTFTGSVITSSGYSPRSAHQYSPQLYPSKPYPHILSTPAAQTMSAYAGQTQYSGMQQPAVYTAYSQTGQPYSLPTYDLGVMLPAIKTESGLSQTQSPLQSGCLSYSPGFSTPQPGQTPYSYQMPGSSFAPSSTIYANNSVSNSTNFSGSQQDYPSYTAFGQNQYAQYYSASTYGAYMTSNNTADGTPSSTSTYQLQESLPGLTNQPGEFDTMQSPSTPIKDLDERTCRSSGSKSRGRGRKNNPSPPPDSDLERVFVWDLDETIIVFHSLLTGSYAQKYGKDPPMAVTLGLRMEEMIFNLADTHLFFNDLEECDQVHIDDVSSDDNGQDLSTYSFATDGFHAAASSANLCLPTGVRGGVDWMRKLAFRYRRVKELYNTYKNNVGGLLGPAKRDAWLQLRAEIEGLTDSWLTNALKSLSIISTRSNCINVLVTTTQLIPALAKVLLYSLGGAFPIENIYSATKIGKESCFERIMQRFGRKVVYVVIGDGVEEEQAAKKHNMPFWRISSHSDLLALHQALELEYL [EYA4]”, the “solubility change mitosis (log2)” value in the series with HeLa Kyoto [1] is -0.16. Also, in the series with HeLa Kyoto [2], the “solubility in G1/S (log2)” value is -0.147.
Take “MAELGEADEAELQRLVAAEQQKAQFTAQVHHFMELCWDKCVEKPGNRLDSRTENCLSSCVDRFIDTTLAITSRFAQIVQKGGQ [TIMM8B]”: the “solubility change mitosis (log2)” value with HeLa Kyoto [1] is 0.734. Moreover, the “solubility in G1/S (log2)” value with HeLa Kyoto [2] is -0.938.
With “MCDQQKQPQFPPSCVKGSGLGAGQGSNGASVKCPVPCQTQTVCVTGPAPCPTQTYVKYQVPCQTQTYVKCPAPCQRTYVKYPTPCQTYVKCPAPCQTTYVKCPTPCQTYVKCPAPCQMTYIKSPAPCQTQTCYVQGASPCQSYYVQAPASGSTSQYCVTDPCSAPCSTSYCCLAPRTFGVSPLRRWIQRPQNCNTGSSGCCENSGSSGCCGSGGCGCSCGCGSSGCCCLGIIPMRSRGPACCDHEDDCCC [XP32]”, the “solubility change mitosis (log2)” value in the series on HeLa Kyoto [1] turned out to be 1.06. In addition, in the series with HeLa Kyoto [2], the “solubility in G1/S (log2)” value is -1.33.
As to “MALLRKINQVLLFLLIVTLCVILYKKVHKGTVPKNDADDESETPEELEEEIPVVICAAAGRMGATMAAINSIYSNTDANILFYVVGLRNTLTRIRKWIEHSKLREINFKIVEFNPMVLKGKIRPDSSRPELLQPLNFVRFYLPLLIHQHEKVIYLDDDVIVQGDIQELYDTTLALGHAAAFSDDCDLPSAQDINRLVGLQNTYMGYLDYRKKAIKDLGISPSTCSFNPGVIVANMTEWKHQRITKQLEKWMQKNVEENLYSSSLGGGVATSPMLIVFHGKYSTINPLWHIRHLGWNPDARYSEHFLQEAKLLHWNGRHKPWDFPSVHNDLWESWFVPDPAGIFKLNHHS [GLT8D2]”, the “solubility change mitosis (log2)” value in the series with HeLa Kyoto [1] was -0.357. The “solubility in G1/S (log2)” value with HeLa Kyoto [2] came to 0.233.
As to “METMRAQRLQPGVGTSGRGTLRALRPGVTGAAAATATPPAGPPPAPPPPAPPPPPLLLSGAPGLPLPPGAAGSPAVLREAVEAVVRSFAKHTQGYGRVNVVEALQEFWQMKQSRGADLKNGALVVYEMVPSNSPPYVCYVTLPGGSCFGSFQFCPTKAEARRSAAKIALMNSVFNEHPSRRITDEFIEKSVSEALASFNGNREEADNPNTGIGAFRFMLESNKGKSMLEFQELMTVFQLLHWNGSLKAMRERQCSRQEVLAHYSHRALDDDIRHQMALDWVSREQSVPGALSRELASTERELDEARLAGKELRFHKEKKDILVLAAGQLGNMHSSNC [LIX1L]”, in the series with HeLa Kyoto [1], the “solubility change mitosis (log2)” value was -0.1. For the same substance, the “solubility in G1/S (log2)” value in the series with HeLa Kyoto [2] was found to be 0.528.
